Data from article PMC8604404, “Kinesin-binding protein remodels the kinesin motor to prevent microtubule binding” (Science Advances, 2021).
Where a chain is given by its changes, count along the chain named.

T1: Kinesin-binding protein (KIFBP), wild type (UniProt Q96EK5 1-621)
T1 construct: also called KIFBP-WT; WT-KIFBP; source: E. coli BL21-DE3, purified (glutathione-Sepharose, PreScission cleavage, Superdex 200)
T1 sequence (looked up): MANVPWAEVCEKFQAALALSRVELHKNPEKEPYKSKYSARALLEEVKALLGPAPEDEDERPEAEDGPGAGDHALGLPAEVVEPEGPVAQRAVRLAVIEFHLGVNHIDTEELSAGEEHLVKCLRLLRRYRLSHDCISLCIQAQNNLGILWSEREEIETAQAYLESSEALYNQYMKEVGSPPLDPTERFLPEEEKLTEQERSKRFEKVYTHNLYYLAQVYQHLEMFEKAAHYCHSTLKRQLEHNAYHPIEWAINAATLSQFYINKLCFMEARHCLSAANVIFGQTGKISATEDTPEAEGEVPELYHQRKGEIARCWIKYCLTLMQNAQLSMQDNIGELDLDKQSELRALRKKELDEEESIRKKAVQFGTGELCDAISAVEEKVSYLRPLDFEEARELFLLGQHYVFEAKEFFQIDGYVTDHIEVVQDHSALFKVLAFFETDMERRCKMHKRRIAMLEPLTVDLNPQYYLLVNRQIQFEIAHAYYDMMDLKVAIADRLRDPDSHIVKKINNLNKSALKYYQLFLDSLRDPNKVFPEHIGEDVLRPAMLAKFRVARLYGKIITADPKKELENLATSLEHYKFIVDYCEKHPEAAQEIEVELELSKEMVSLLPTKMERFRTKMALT

B1: His6-KIF15-N375 (KIF15 motor domain, amino acids 1 to 375) (domain or fragment, human, UniProt Q9NS87 1-375, looked up)
chain: MAPGCKTELRSVTNGQSNQPSNEGDAIKVFVRIRPPAERSGSADGEQNLCLSVLSSTSLRLHSNPEPKTFTFDHVADVDTTQESVFATVAKSIVESCMSGYNGTIFAYGQTGSGKTFTMMGPSESDNFSHNLRGVIPRSFEYLFSLIDREKEKAGAGKSFLCKCSFIEIYNEQIYDLLDSASAGLYLREHIKKGVFVVGAVEQVVTSAAEAYQVLSGGWRNRRVASTSMNRESSRSHAVFTITIESMEKSNEIVNIRTSLLNLVDLAGSERQKDTHAEGMRLKEAGNINRSLSCLGQVITALVDVGNGKQRHVCYRDSKLTFLLRDSLGGNAKTAIIANVHPGSRCFGETLSTLNFAQRAKLIKNKAVVNEDTQG
notes: No cleavage of the tag is described; also called KIF15 (1 to 375); source: E. coli BL21-DE3, purified (Ni-NTA, Superdex 200)
B2: His6-KIF18A-N363 (KIF18A motor domain, amino acids 1 to 363) (domain or fragment, human, UniProt Q8NI77 1-363, looked up)
chain: MSVTEEDLCHHMKVVVRVRPENTKEKAAGFHKVVHVVDKHILVFDPKQEEVSFFHGKKTTNQNVIKKQNKDLKFVFDAVFDETSTQSEVFEHTTKPILRSFLNGYNCTVLAYGATGAGKTHTMLGSADEPGVMYLTMLHLYKCMDEIKEEKICSTAVSYLEVYNEQIRDLLVNSGPLAVREDTQKGVVVHGLTLHQPKSSEEILHLLDNGNKNRTQHPTDMNATSSRSHAVFQIYLRQQDKTASINQNVRIAKMSLIDLAGSERASTSGAKGTRFVEGTNINRSLLALGNVINALADSKRKNQHIPYRNSKLTRLLKDSLGGNCQTIMIAAVSPSSVFYDDTYNTLKYANRAKDIKSSLKSNV
notes: No cleavage of the tag is described; also called KIF18A (1-363); source: E. coli BL21-DE3, purified (Ni-NTA, Superdex 200)
B3: KIFBP-L14^m (Loop-14 mutant of KIFBP) (natural protein, UniProt Q96EK5 1-621, looked up)
chain: T1 sequence (looked up) with D460A, L461A, N462A, P463A, Q464A, Y465A
notes: The methods tell the construction of mCherry-KIFBP-L14^m only, not of GST-KIFBP-L14^m; also called GST-KIFBP-L14^m; source: E. coli BL21-DE3, purified (glutathione-Sepharose, PreScission cleavage, Superdex 200)

What was measured:
Conditions in all cases: both partners purified
[1] = target: T1, Kinesin-binding protein (KIFBP), wild …; assay: SEC; kinesin motor domain mixed with equimolar KIFBP, Superose 6, 10 mM K-Hepes pH 7.7, 50 mM KCl, 1 mM DTT, 0.2 mM MgATP; fractions analysed by SDS-PAGE
[2] = target: T1, Kinesin-binding protein (KIFBP), wild …; assay: pull-down; His6-kinesin motor domain immobilised on Ni-NTA agarose, 20 ug KIFBP protein or GST in 200 ul, 10 mM Hepes pH 7.4, 50 mM KCl, 10 mM imidazole, 30 min at 4°C; Coomassie gel, ratio of KIFBP to kinesin in the pellet
[3] = target: B1; assay: as above

## B1
[1]
  binding result: binds

## B2
[2]
  binding result: binds

## B3
[3]
  fold reduction in binding against KIFBP-WT: 2 fold
